What was measured:
Mcm5 (subunit of CMG) = target: T1, Mcm5 (subunit of CMG) (yeast, UniProt P29496 1-775); assay: cryo-EM structure; replisome assembled at room temperature from 0.7 uM CMG, forked DNA and ATPγS, then 1.5 molar excess of Polε, Ctf4, Tof1-Csm3; 100 mM KCl, 25 mM HEPES pH 7.6, 4 mM MgCl2, 4 mM ATPγS; 10-30% glycerol gradient with glutaraldehyde fixation; States I-VI by 3D classification; conditions: both partners purified
T1 construct: Mcm5, yeast; Chain of m1 as it stands in the replisome structure; also called Mcm5-CTD; Mcm5-WHD; source: yeast strain yJCZ2, purified as part of CMG (anti-FLAG M2 resin, Mono Q, Superose 6)
T1 sequence: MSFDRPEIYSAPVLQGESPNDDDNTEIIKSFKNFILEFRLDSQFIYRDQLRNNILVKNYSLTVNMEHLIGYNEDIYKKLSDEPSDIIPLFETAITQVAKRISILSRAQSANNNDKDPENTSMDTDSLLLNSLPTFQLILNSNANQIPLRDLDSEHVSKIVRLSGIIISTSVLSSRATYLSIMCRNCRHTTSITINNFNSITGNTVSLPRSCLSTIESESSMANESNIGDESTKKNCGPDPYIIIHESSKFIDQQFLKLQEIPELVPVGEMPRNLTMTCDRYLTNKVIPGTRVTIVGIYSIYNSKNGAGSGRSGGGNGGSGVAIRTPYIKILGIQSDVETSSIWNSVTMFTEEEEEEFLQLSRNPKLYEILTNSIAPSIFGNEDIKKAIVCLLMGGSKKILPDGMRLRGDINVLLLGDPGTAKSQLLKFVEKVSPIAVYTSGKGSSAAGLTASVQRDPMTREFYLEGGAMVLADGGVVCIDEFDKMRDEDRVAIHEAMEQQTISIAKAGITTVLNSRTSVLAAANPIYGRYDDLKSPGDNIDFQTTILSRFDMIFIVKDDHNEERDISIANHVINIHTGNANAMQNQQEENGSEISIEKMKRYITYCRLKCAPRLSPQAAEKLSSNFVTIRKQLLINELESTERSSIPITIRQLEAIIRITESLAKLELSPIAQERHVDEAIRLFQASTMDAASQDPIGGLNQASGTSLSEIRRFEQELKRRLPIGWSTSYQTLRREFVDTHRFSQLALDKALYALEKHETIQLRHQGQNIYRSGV

Mcm3 (subunit of CMG) = target: T2, Mcm3 (subunit of CMG) (yeast, UniProt P24279 1-971); assay: as above; conditions: both partners purified
T2 construct: Mcm3, yeast; Chain of m1 as it stands in the replisome structure; source: yeast strain yJCZ2, purified as part of CMG (anti-FLAG M2 resin, Mono Q, Superose 6)
T2 sequence (P24279 whole entry): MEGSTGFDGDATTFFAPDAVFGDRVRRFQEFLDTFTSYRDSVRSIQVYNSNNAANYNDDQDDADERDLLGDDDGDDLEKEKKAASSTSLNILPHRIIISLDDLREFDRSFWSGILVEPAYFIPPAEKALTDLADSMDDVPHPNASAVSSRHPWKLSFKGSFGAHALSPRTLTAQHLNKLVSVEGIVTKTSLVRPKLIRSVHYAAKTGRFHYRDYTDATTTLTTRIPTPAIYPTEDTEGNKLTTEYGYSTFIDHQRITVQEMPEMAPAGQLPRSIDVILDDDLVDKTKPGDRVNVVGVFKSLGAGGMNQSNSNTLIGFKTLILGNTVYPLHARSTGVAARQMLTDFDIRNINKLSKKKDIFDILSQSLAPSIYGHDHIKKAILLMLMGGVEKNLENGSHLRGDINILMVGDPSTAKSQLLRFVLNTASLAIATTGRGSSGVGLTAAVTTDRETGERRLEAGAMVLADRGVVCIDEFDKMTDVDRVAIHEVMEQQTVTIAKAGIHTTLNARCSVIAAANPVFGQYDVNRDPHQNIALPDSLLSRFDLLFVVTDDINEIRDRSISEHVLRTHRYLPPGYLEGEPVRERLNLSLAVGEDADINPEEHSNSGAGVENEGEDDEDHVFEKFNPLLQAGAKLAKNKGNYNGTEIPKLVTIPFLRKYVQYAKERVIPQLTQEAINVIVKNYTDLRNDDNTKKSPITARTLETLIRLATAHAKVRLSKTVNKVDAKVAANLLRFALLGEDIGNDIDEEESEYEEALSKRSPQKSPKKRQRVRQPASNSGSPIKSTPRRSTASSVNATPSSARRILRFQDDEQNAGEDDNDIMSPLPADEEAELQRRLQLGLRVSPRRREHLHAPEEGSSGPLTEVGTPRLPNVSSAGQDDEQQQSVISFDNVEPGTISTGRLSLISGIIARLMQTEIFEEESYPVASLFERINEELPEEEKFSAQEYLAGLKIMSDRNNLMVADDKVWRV

- binding result (Mcm5 (subunit of CMG)): binds
- binding result (Mcm3 (subunit of CMG)): binds
B1: Dpb2 (subunit of Polε in the replisome) (natural protein, yeast)
chain: MFGSGNVLPVKIQPPLLRPLAYRVLSRKYGLSIKSDGLSALAEFVGTNIGANWRQGPATIKFLEQFAAVWKQQERGLFIDQSGVKEVIQEMKEREKVEWSHEHPIQHEENILGRTDDDENNSDDEMPIAADSSLQNVSLSSPMRQPTERDEYKQPFKPESSKALDWRDYFKVINASQQQRFSYNPHKMQFIFVPNKKQNGLGGIAGFLPDIEDKVQMFLTRYYLTNDRVMRNENFQNSDMFNPLSSMVSLQNELSNTNRQQQSSSMSITPIKNLLGRDAQNFLLLGLLNKNFKGNWSLEDPSGSVEIDISQTIPTQGHYYVPGCMVLVEGIYYSVGNKFHVTSMTLPPGERREITLETIGNLDLLGIHGISNNNFIARLDKDLKIRLHLLEKELTDHKFVILGANLFLDDLKIMTALSKILQKLNDDPPTLLIWQGSFTSVPVFASMSSRNISSSTQFKNNFDALATLLSRFDNLTENTTMIFIPGPNDLWGSMVSLGASGTLPQDPIPSAFTKKINKVCKNVVWSSNPTRIAYLSQEIVIFRDDLSGRFKRHRLEFPFNESEDVYTENDNMMSKDTDIVPIDELVKEPDQLPQKVQETRKLVKTILDQGHLSPFLDSLRPISWDLDHTLTLCPIPSTMVLCDTTSAQFDLTYNGCKVINPGSFIHNRRARYMEYVPSSKKTIQEEIYI
notes: Dpb2, yeast, subunit of Polε; NTD 12-98, linker 99-156, PDE domain 157-689 as printed; Chain of m2 as it stands in the replisome structure; also called Dpb2-NTD; Dpb2-OB; source: yeast strain yAJ2, purified as part of Polε (calmodulin resin, TEV elution, Mono Q, Superose 6)

Reference: publication PMC10511561, “Synergism between CMG helicase and leading strand DNA polymerase at replication fork” (Nature Communications, 2023)
